Assay results from US20170165338A1.

Biological target: HLA-A*24 (human)
Experiment: UV-exchange b2m ELISA

Binder: LYHDIFSRL
- peptide exchange yield: > 75%

Binder: QYLENLEKL
- peptide exchange yield: 50 to 75%

Binder: PYRLIFEKF
- peptide exchange yield: 20 to 49%

Binder: TYGDAGLTYTF
- peptide exchange yield: 50 to 75%

Binder: KYIPYKYVI
- peptide exchange yield: 50 to 75%

Binder: EYNQWFTKL
- peptide exchange yield: 50 to 75%

Binder: NYINRILKL
- peptide exchange yield: > 75%

Binder: KYMVYPQTF
- peptide exchange yield: > 75%

Binder: LYIDRPLPYL
- peptide exchange yield: 50 to 75%

Binder: RYPDNLKHL
- peptide exchange yield: 20 to 49%

Binder: TYIESASEL
- peptide exchange yield: 50 to 75%

Binder: KFVDSTFYL
- peptide exchange yield: > 75%

Binder: RYAEEVGIF
- peptide exchange yield: 50 to 75%

Binder: YYKSTSSAF
- peptide exchange yield: 50 to 75%

Binder: RYPDNLKHLYL
- peptide exchange yield: > 75%

Binder: KYPVEWAKF
- peptide exchange yield: > 75%

Binder: YYEVHKELF
- peptide exchange yield: > 75%

Binder: NYYEVHKELF
- peptide exchange yield: 50 to 75%

Binder: KFSSFSLFF
- peptide exchange yield: 50 to 75%

Binder: KYTSWYVAL
- peptide exchange yield: > 75%

Binder: RYISDQLFTNF
- peptide exchange yield: > 75%

Binder: VYGFQWRHF
- peptide exchange yield: > 75%

Binder: VFTRVSSFL
- peptide exchange yield: 50 to 75%

Binder: TYKDEGNDYF
- peptide exchange yield: 50 to 75%

Binder: HYPPVQVLF
- peptide exchange yield: 50 to 75%

Binder: AYTLIAPNI
- peptide exchange yield: 50 to 75%

Binder: YYVESGKLF
- peptide exchange yield: > 75%

Binder: VYRDETGELF
- peptide exchange yield: 50 to 75%

Binder: TYIKPISKL
- peptide exchange yield: 50 to 75%

Binder: IYSWILDHF
- peptide exchange yield: > 75%

Binder: AYVVFVSTL
- peptide exchange yield: 20 to 49%

Binder: TYELRYFQI
- peptide exchange yield: > 75%

Binder: LYITEPKTI
- peptide exchange yield: 50 to 75%

Binder: RYLNKAFHI
- peptide exchange yield: 50 to 75%

Binder: VYVGGGQIIHL
- peptide exchange yield: 50 to 75%

Binder: EYSLFPGQVVI
- peptide exchange yield: 50 to 75%

Binder: QYLQDAYSF
- peptide exchange yield: > 75%

Binder: DYLKGLASF
- peptide exchange yield: > 75%

Binder: IFLDYEAGTLSF
- peptide exchange yield: > 75%

Binder: YYGPSLFLL
- peptide exchange yield: 50 to 75%

Binder: QYLGQIQHI
- peptide exchange yield: 50 to 75%

Binder: TFSVSSHLF
- peptide exchange yield: 50 to 75%

Binder: IYATEAHVF
- peptide exchange yield: 50 to 75%

Binder: VYWDSAGAAHF
- peptide exchange yield: > 75%

Binder: EYINQGDLHEF
- peptide exchange yield: 50 to 75%

Binder: YFIDSTNLKTHF
- peptide exchange yield: 50 to 75%

Binder: IYLVSIPEL
- peptide exchange yield: > 75%

Binder: TYSVSFPMF
- peptide exchange yield: > 75%

Binder: YYVYIMNHL
- peptide exchange yield: 50 to 75%

Binder: LYNKGFIYL
- peptide exchange yield: > 75%

Binder: KYQDILETI
- peptide exchange yield: > 75%

Binder: DYTTWTALL
- peptide exchange yield: > 75%

Binder: VYQGHTALL
- peptide exchange yield: > 75%

Binder: VYTLDIPVL
- peptide exchange yield: > 75%

Binder: HYSQELSLLYL
- peptide exchange yield: > 75%

Binder: VYEDQVGKF
- peptide exchange yield: 20 to 49%

Binder: VYVSDIQEL
- peptide exchange yield: 50 to 75%

Binder: LFIPSSKLLFL
- peptide exchange yield: 50 to 75%

Binder: AYLHSHALI
- peptide exchange yield: > 75%
